Assay [1] addresses human FGFR4 at the cell surface (stably transfected HEK293 and L6 cells; endogenous on human liver cancer cell lines) (human) (UniProt P22455). Nature of the assay: flow cytometry on HEK293 cells stably transfected with hFGFR4, RFU. A general note: In flow cytometry, cells or beads pass a laser one at a time.
In assay [2] the target is T1, mouse FGFR4-Fc chimeric protein (mouse) (UniProt Q03142).
T1 sequence (looked up): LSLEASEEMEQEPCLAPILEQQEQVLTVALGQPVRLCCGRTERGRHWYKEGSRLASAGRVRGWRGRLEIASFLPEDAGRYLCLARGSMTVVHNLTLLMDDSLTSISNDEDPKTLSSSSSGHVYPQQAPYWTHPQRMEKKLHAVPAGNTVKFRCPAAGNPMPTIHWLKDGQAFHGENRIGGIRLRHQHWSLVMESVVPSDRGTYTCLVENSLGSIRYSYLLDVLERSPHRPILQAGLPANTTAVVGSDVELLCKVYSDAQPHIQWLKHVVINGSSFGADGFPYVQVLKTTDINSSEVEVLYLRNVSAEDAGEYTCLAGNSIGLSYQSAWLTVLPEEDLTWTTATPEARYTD
Briefly: solid phase binding assay, LD1 on immobilized mFGFR4-Fc, OD 450 nm.

In assay [3] the target is T2, human FGFR4-Fc chimeric protein (human) (UniProt P22455).
T2 sequence: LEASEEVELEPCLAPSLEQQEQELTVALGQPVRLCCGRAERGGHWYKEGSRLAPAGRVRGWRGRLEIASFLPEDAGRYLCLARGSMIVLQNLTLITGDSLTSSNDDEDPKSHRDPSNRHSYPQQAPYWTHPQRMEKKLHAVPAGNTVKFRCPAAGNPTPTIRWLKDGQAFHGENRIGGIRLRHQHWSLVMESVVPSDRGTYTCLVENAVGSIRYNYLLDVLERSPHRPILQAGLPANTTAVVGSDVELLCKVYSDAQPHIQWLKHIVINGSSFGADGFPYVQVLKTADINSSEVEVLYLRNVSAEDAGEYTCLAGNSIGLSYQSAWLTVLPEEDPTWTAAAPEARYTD
Nature of the assay: solid phase binding assay, LD1 on immobilized hFGFR4-Fc, OD 450 nm.

Assay [4] has as its target human FGFR4 at the cell surface (stably transfected HEK293 and L6 cells; endogenous on human liver cancer cell lines) (human) (UniProt P22455). Briefly: cell-based or functional assay.

B1: chimeric LD1 (murine LD1 variable domains with human kappa and human IgG1 constant domains) (antibody, V domains shown)
VH: EVQLQQPGAVLVRPGTSVKLSCKASGYTFTNHWMNWVKQRPGQGLEWIGMIHPSDSETTLDQKFKDKATLTVDKSSSTAYMQLNRPTSEDSAVYYCTRGDISLFDYWGQGTTVTVSS
VL: DIQMTQTTSSLSASLGDRVTITCRTSQDISNFLNWYQQKPDGTFKILISYTSRLHSGVPSRFSGSGSGTDYSLTISTLEQEDFATYFCQQGNALPYTFGGGTKLEIE
For B1, the concentration for a half-maximal effect (EC50 (read off the curve)) (commonly the concentration that produces a half-maximal response) in assay [1] came to 0.5 µg/mL. In addition, the EC50 (read off the curve) in assay [2] worked out at 0.04 µg/mL. For the same molecule, the EC50 (read off the curve) in assay [3] is 0.04 µg/mL. Further, in assay [4], the CYP7α1 expression in HEP3B cells with added FGF19 turned out to be 67%, the CYP7α1 expression in HEP3B cells without added FGF19 stood at 2 fold, the CYP7α1 expression in HUH7 cells in the absence of FGF19 is 3.5 fold and the CYP7α1 expression in HUH7 cells in the presence of FGF19 amounted to 2.9 fold. Moreover, in assay [4], the decrease of basal c-Fos expression in JHH5, JHH7 and HUH7 cell lines was 50%; the decrease of basal c-Fos expression in the PLC/PRF/5 cell line was 75%; the maximum inhibition of colony formation, HUH7 cells came out at 50%; the maximum inhibition of colony formation, JHH5 cells was found to be 26%. For the same molecule, in assay [4], the maximum inhibition of colony formation, PLC/PRF/5 cells amounted to 82%.

The values are drawn from patent US20140037624A1.
